Data reported in patent publication US20250235548A1 (Zymeworks, published 2025).

Assays:
Assay in all cases: cell-based or functional assay
[1] = biological target: T1, human sodium-dependent phosphate transporter 2B (NaPi2b) (human, UniProt O95436 1-690)
T1 sequence: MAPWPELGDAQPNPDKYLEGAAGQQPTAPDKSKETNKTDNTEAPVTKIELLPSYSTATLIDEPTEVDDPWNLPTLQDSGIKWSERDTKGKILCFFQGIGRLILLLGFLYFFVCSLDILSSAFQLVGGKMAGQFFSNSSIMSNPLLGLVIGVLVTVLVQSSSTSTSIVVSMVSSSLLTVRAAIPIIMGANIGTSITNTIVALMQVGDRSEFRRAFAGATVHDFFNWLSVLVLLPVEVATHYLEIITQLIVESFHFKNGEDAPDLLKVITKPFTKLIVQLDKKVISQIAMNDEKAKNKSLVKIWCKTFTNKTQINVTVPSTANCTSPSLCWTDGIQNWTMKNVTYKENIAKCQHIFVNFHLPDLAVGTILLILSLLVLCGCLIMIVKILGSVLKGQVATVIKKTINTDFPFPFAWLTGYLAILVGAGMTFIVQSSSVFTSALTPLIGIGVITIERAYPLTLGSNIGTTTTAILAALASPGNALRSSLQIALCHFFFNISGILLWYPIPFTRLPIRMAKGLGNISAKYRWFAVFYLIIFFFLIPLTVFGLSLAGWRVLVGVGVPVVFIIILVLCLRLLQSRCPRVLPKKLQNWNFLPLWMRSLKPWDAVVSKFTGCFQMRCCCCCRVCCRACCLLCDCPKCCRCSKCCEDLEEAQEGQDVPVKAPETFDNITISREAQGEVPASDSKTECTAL

[2] = biological target: T1, human sodium-dependent phosphate …; remark: listed apart in the source
[3] = biological target: T2, human sodium-dependent phosphate transporter 2B (NaPi2b) (human, UniProt O95436 1-690); remark: listed apart in the source
T2 sequence: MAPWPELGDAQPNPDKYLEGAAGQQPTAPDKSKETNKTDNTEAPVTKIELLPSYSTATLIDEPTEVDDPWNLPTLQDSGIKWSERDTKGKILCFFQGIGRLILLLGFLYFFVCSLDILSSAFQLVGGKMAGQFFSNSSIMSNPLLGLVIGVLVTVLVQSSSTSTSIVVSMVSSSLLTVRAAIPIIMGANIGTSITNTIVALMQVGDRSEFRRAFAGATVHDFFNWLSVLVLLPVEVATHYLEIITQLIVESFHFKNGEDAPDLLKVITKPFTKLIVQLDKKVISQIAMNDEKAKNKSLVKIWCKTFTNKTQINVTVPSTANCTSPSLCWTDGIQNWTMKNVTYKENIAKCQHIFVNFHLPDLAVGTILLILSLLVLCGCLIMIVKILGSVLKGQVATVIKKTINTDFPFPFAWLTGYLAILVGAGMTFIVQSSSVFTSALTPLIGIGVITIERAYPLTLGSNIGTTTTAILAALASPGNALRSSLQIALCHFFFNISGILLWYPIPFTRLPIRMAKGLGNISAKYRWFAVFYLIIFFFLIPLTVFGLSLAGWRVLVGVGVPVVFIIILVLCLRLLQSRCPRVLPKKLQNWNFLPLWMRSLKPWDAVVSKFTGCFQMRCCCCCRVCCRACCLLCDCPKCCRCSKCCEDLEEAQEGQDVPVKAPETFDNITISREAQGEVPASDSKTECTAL

[4] = biological target: T2, human sodium-dependent phosphate …; remark: listed apart in the source

Binder	Internalized Fluorescence Fold-Over Untreated, H441, 4 hours, 2.5 nM [1]	Internalized Fluorescence Fold-Over Untreated, H441, 24 hours, 2.5 nM [1]	Internalized Fluorescence Fold-Over Untreated, HCC-78, 4 hours, 2.5 nM [1]	Internalized Fluorescence Fold-Over Untreated, HCC-78, 24 hours, 2.5 nM [1]	Internalized Fluorescence Fold-Over Untreated, IGROV-1, 4 hours, 2.5 nM [1]	Internalized Fluorescence Fold-Over Untreated, IGROV-1, 24 hours, 2.5 nM [1]	EC50 (nM), in vitro cytotoxicity, H441 Spheroids [2]	EC50 (nM), in vitro cytotoxicity, H1781 Spheroids [2]	EC50 of cytotoxicity, 2D monolayer, HCC-78 cells, 4 days, CellTiter-Glo [3]	EC50 of cytotoxicity, 2D monolayer, IGROV-1 cells, 4 days, CellTiter-Glo [3]	EC50 of cytotoxicity, HCC-78 3D spheroids, 6 days, CellTiter-Glo 3D [4]	EC50 of cytotoxicity, IGROV-1 3D spheroids, 6 days, CellTiter-Glo 3D [4]
v38591 (humanized anti-NaPi2b antibody, H1L2, wild-type Fc) (antibody, human IgG1, kappa) heavy: not shown light: DVQMTQSPSSLSASVGDRVTITCRASQDVYSYLNWYQQKPGKAVKLLIYYTSRLQSGVPSRFSGSGSGTDYTLTISSLQPEDFATYYCQQYNIFPWTFGQGTKLEIKRTVAAPSVFIFPPSDEQLKSGTASVVCLLNNFYPREAKVQWKVDNALQSGNSQESVTEQDSKDSTYSLSSTLTLSKADYEKHKVYACEVTHQGLSSPVTKSFNRGEC	1.2 fold	1.9 fold	5.7 fold	35 fold	7.2 fold	26 fold	> 200 nM	> 200 nM				
v38591-MC-GGFG-AM-Compound 139 DAR 4 (antibody, human IgG1, kappa, drug-linker MC-GGFG-AM-Compound 139 conjugated by maleimide after TCEP reduction; DAR 4 for the whole antibody; sites not stated) heavy: not shown light: DVQMTQSPSSLSASVGDRVTITCRASQDVYSYLNWYQQKPGKAVKLLIYYTSRLQSGVPSRFSGSGSGTDYTLTISSLQPEDFATYYCQQYNIFPWTFGQGTKLEIKRTVAAPSVFIFPPSDEQLKSGTASVVCLLNNFYPREAKVQWKVDNALQSGNSQESVTEQDSKDSTYSLSSTLTLSKADYEKHKVYACEVTHQGLSSPVTKSFNRGEC	1.2 fold	2 fold	5.6 fold	35.9 fold	7.1 fold	26.6 fold	9.85 nM	0.95 nM				
v29456-MT-GGFG-Compound 148 DAR 8 (antibody, human IgG1, kappa, MT-GGFG-Compound 148 drug-linker on reduced cysteines (maleimide); DAR 8 for the whole antibody) heavy: not shown light: DVQMTQSPSSLSASVGDRVTITCRASQDVYSYLNWYQQKPGKAVKLLIYYTSRLQSGVPSRFSGSGSGTDYTLTISSLQPEDFATYYCQQYNIFPWTFGQGTKLEIKRTVAAPSVFIFPPSDEQLKSGTASVVCLLNNFYPREAKVQWKVDNALQSGNSQESVTEQDSKDSTYSLSSTLTLSKADYEKHKVYACEVTHQGLSSPVTKSFNRGEC									1.98 nM			
v29456-MT-GGFG-AM-Compound 139 DAR 8 (antibody, human IgG1, kappa, MT-GGFG-AM-Compound 139 drug-linker on reduced cysteines (maleimide); DAR 8 for the whole antibody) heavy: not shown light: DVQMTQSPSSLSASVGDRVTITCRASQDVYSYLNWYQQKPGKAVKLLIYYTSRLQSGVPSRFSGSGSGTDYTLTISSLQPEDFATYYCQQYNIFPWTFGQGTKLEIKRTVAAPSVFIFPPSDEQLKSGTASVVCLLNNFYPREAKVQWKVDNALQSGNSQESVTEQDSKDSTYSLSSTLTLSKADYEKHKVYACEVTHQGLSSPVTKSFNRGEC									0.65 nM	1.71 nM	0.82 nM	0.37 nM
v29456-MT-GGFG-AM-Compound 136 DAR 8 (antibody, human IgG1, kappa, MT-GGFG-AM-Compound 136 drug-linker on reduced cysteines (maleimide); DAR 8 for the whole antibody) heavy: not shown light: DVQMTQSPSSLSASVGDRVTITCRASQDVYSYLNWYQQKPGKAVKLLIYYTSRLQSGVPSRFSGSGSGTDYTLTISSLQPEDFATYYCQQYNIFPWTFGQGTKLEIKRTVAAPSVFIFPPSDEQLKSGTASVVCLLNNFYPREAKVQWKVDNALQSGNSQESVTEQDSKDSTYSLSSTLTLSKADYEKHKVYACEVTHQGLSSPVTKSFNRGEC									0.43 nM	4.48 nM		
v29456-MT-GGFG-AM-Compound 129 DAR 8 (antibody, human IgG1, kappa, MT-GGFG-AM-Compound 129 drug-linker on reduced cysteines (maleimide); DAR 8 for the whole antibody) heavy: not shown light: DVQMTQSPSSLSASVGDRVTITCRASQDVYSYLNWYQQKPGKAVKLLIYYTSRLQSGVPSRFSGSGSGTDYTLTISSLQPEDFATYYCQQYNIFPWTFGQGTKLEIKRTVAAPSVFIFPPSDEQLKSGTASVVCLLNNFYPREAKVQWKVDNALQSGNSQESVTEQDSKDSTYSLSSTLTLSKADYEKHKVYACEVTHQGLSSPVTKSFNRGEC									0.42 nM	1.11 nM		
v40502 (LALADS) anti-NaPi2b antibody (antibody, human IgG1, kappa, L234A L235A) heavy: not shown light: DVQMTQSPSSLSASVGDRVTITCRASQDVYSYLNWYQQKPGKAVKLLIYYTSRLQSGVPSRFSGSGSGTDYTLTISSLQPEDFATYYCQQYNIFPWTFGQGTKLEIKRTVAAPSVFIFPPSDEQLKSGTASVVCLLNNFYPREAKVQWKVDNALQSGNSQESVTEQDSKDSTYSLSSTLTLSKADYEKHKVYACEVTHQGLSSPVTKSFNRGEC	1.2 fold	1.9 fold	5.5 fold	35.5 fold	7 fold	25.3 fold	> 200 nM	> 200 nM				
v40502-MC-GGFG-AM-Compound 139 DAR 4 (antibody, human IgG1, kappa, L234A L235A, drug-linker MC-GGFG-AM-Compound 139 conjugated by maleimide after TCEP reduction; DAR 4 for the whole antibody (printed 3.3 in Table 45.1); sites not stated) heavy: not shown light: DVQMTQSPSSLSASVGDRVTITCRASQDVYSYLNWYQQKPGKAVKLLIYYTSRLQSGVPSRFSGSGSGTDYTLTISSLQPEDFATYYCQQYNIFPWTFGQGTKLEIKRTVAAPSVFIFPPSDEQLKSGTASVVCLLNNFYPREAKVQWKVDNALQSGNSQESVTEQDSKDSTYSLSSTLTLSKADYEKHKVYACEVTHQGLSSPVTKSFNRGEC	1.2 fold	1.9 fold	5.3 fold	36.5 fold	6.8 fold	25.4 fold	7.57 nM	1.15 nM				
v18993-MCvc-PABC-MMAE (lifastuzumab vedotin) (antibody, human IgG1, kappa, drug-linker MCvc-PABC-MMAE; DAR 4.1 for the whole antibody; sites not stated) heavy 1: GEVQLVESGGGLVQPGGSLRLSCAASGFSFSDFAMSWVRQAPGKGLEWVATIGRVAFHTYYPDSMKGRFTISRDNSKNTLYLQMNSLRAEDTAVYYCARHRGFDVGHFDFWGQGTLVTVSSASTKGPSVFPLAPSSKSTSGGTAALGCLVKDYFPEPVTVSWNSGALTSGVHTFPAVLQSSGLYSLSSVVTVPSSSLGTQTYICNVNHKPSNTKVDKKVEPKSCDKTHTCPPCPAPELLGGPSVFLFPPKPKDTLMISRTPEVTCVVVDVSHEDPEVKFNWYVDGVEVHNAKTKPREEQYNSTYRVVSVLTVLHQDWLNGKEYKCKVSNKALPAPIEKTISKAKGQPREPQVYVYPPSRDELTKNQVSLTCLVKGFYPSDIAVEWESNGQPENNYKTTPPVLDSDGSFALVSKLTVDKSRWQQGNVFSCSVMHEALHNHYTQKSLSLSPG heavy 2: not shown light: GDIQMTQSPSSLSASVGDRVTITCRSSETLVHSSGNTYLEWYQQKPGKAPKLLIYRVSNRFSGVPSRFSGSGSGTDFTLTISSLQPEDFATYYCFQGSFNPLTFGQGTKVEIKRTVAAPSVFIFPPSDEQLKSGTASVVCLLNNFYPREAKVQWKVDNALQSGNSQESVTEQDSKDSTYSLSSTLTLSKADYEKHKVYACEVTHQGLSSPVTKSFNRGEC							11.4 nM	7.94 nM				
v21995 (palivizumab, anti-RSV antibody) (antibody, human IgG1, kappa, V domains shown) VH: QVTLRESGPALVKPTQTLTLTCTFSGFSLSTSGMSVGWIRQPPGKALEWLADIWWDDKKDYNPSLKSRLTISKDTSKNQVVLKVTNMDPADTATYYCARSMITNWYFDVWGAGTTVTVSS VL: DIQMTQSPSTLSASVGDRVTITCKSQLSVGYMHWYQQKPGKAPKLLIYDTSKLASGVPSRFSGSGSGTEFTLTISSLQPDDFATYYCFQGSGYPFTFGGGTKLEIKR	1 fold	1.1 fold	1 fold	1.1 fold	0.9 fold	1 fold						
